According to the RNAGym collection of RNA variant scans (doi:10.7554/elife.90254):

B1: LINE1-mini (parent)
chain: GGCAGAGCUCAACACAGCGUGGCAAAGUGGCUGUGGCUAGACUGCC

Variants of: B1
Assay: self-cleavage, relative activity (ratio to wild type); higher = more cleavage; in vitro, sequencing; the parent is a self-cleaving ribozyme

First: GGCAGGGCUCAACACAGCGUGGCAAAGUGGCUUUGGCUAGACUGCC [A6G G33U]
Second: GGCAGAGCUCAAUACAGCGUAGCAAAGUGGCUGUGGCUAGACUGCC [C13U G21A]
The self-cleavage of the first is lower: 0.07 for the first, 0.22 for the second.

Compared with GGGAGAGCUCAACACAGCGUGGCUAAGUGGCUGUGGCUAGACUGCC [C3G A24U], GGGAGAGCUCAACACAGCGUGGCCAAGUGGCUGUGGCUAGACUGCC [C3G A24C] is lower in self-cleavage: 0.72 for the first, 0.35 for the second.

Going from GGCAGAGCUCAACACAGCGUUGCAACGUGGCUGUGGCUAGACUGCC [G21U A26C] to GACAGAGCUCAACACAGCGUGGCAAAGUGGCUGUGGCUAGGCUGCC [G2A A41G], the self-cleavage falls from 1.29 to 0.4.

First: GGCAGAGCUUAACACAGCGUGGCAAAGUGGCUAUGGCUAGACUGCC [C10U G33A]
Second: GGCAGAGCUCAACACAGCCUGGCAAAGUGGCAGUGGCUAGACUGCC [G19C U32A]
The self-cleavage of the first is lower: 0.05 for the first, 0.16 for the second.

Going from GGCAGAUCUCAACACAGCGUCGCAAAGUGGCUGUGGCUAGACUGCC [G7U G21C] to GGCAGAGCUCAAAACAGCGUGGCAAAGUGGCUGUGGCUAGACUGGC [C13A C45G], the self-cleavage rises from 0.08 to 0.09.

Compared with GGCAGAGGUCAACACAGCGUGGCAACGUGGCUGUGGCUAGACUGCC [C8G A26C], GACAGAGCUCAACACAGGGUGGCAAAGUGGCUGUGGCUAGACUGCC [G2A C18G] is higher in self-cleavage: 0.14 for the first, 0.46 for the second.

Going from GGCAGAGCUCAGCACAGCGUGGCAAAGUGGCUGUGGCUAGACUGGC [A12G C45G] to GGCAGAGCUCAACACAGCGUGGCAAAGUGGCUGUGGCUAGGCUGCA [A41G C46A], the self-cleavage rises from 0.06 to 0.22.

GGCAGAGCUCAACACAGCGUGCCAAAGUGGCUUUGGCUAGACUGCC [G22C G33U] and GGCAGAGCUCAACACAGCGUGGCAAAGUGGCUGAGGCUAGACAGCC [U34A U43A] are the same in self-cleavage: 0.06 for the first, 0.06 for the second.

Compared with GGCAGAGCUCAACACAGGGUGGCAAAGUGGCAGUGGCUAGACUGCC [C18G U32A], GGCAGAGCUCAAGACAGCGUGGCAAAGUGGCUGUGUCUAGACUGCC [C13G G36U] is higher in self-cleavage: 0.05 for the first, 0.1 for the second.

Compared with GGCAGAGCUCAACACUGCGUGGCAAAGUGGCUGUGGCUUGACUGCC [A16U A39U], GGCAGAGCUCAACACAGCGUGGCAAAGUGGCUGUGGCUAGACGGCA [U43G C46A] is higher in self-cleavage: 0.08 for the first, 0.18 for the second.

First: GGCAGAGCUCAAAACAACGUGGCAAAGUGGCUGUGGCUAGACUGCC [C13A G17A]
Second: GGCAGAGCUCAACACAGCGUGGCAAAGUGGCUGUGGCUACUCUGCC [G40C A41U]
The self-cleavage of the first is lower: 0.1 for the first, 0.14 for the second.

First: AGCAGAGCGCAACACAGCGUGGCAAAGUGGCUGUGGCUAGACUGCC [G1A U9G]
Second: GGCAGCGCUCAACACAGCGUGGCAAAGUGGCUGUUGCUAGACUGCC [A6C G35U]
The self-cleavage of the first is higher: 0.22 for the first, 0.09 for the second.

First: GGCAGAGGUCAACACAGCGUGGAAAAGUGGCUGUGGCUAGACUGCC [C8G C23A]
Second: GGCACGGCUCAACACAGCGUGGCAAAGUGGCUGUGGCUAGACUGCC [G5C A6G]
The self-cleavage of the first is higher: 0.1 for the first, 0.09 for the second.

First: GGCAGAGCUCAACCCAGCGUGGCGAAGUGGCUGUGGCUAGACUGCC [A14C A24G]
Second: GGCAGAGCUCAACACAGCGUGGAAAAGUGGCUGUGGCUAGACUGCA [C23A C46A]
The self-cleavage of the first is lower: 0.07 for the first, 0.98 for the second.

Compared with GGCAGAGAUCAACAAAGCGUGGCAAAGUGGCUGUGGCUAGACUGCC [C8A C15A], GGCAGAGCUCAACACAGCGAGGGAAAGUGGCUGUGGCUAGACUGCC [U20A C23G] is higher in self-cleavage: 0.37 for the first, 0.69 for the second.

Going from GGCAGAGCUCAACACAGCGUGGCAUGGUGGCUGUGGCUAGACUGCC [A25U A26G] to GGCAGAUCUCAACACAGCGUGGCAAAGUGGCUGUGGUUAGACUGCC [G7U C37U], the self-cleavage falls from 0.71 to 0.03.

Compared with GGCAGAGAUCAACACAGCGUGGCAAAGUAGCUGUGGCUAGACUGCC [C8A G29A], GGCAGAGCUCAACACAGCGUGGGCAAGUGGCUGUGGCUAGACUGCC [C23G A24C] is higher in self-cleavage: 0.26 for the first, 0.41 for the second.

Going from GGCAGAGCUCAACACAGCGUGGCGAAGUGGCGGUGGCUAGACUGCC [A24G U32G] to GGCAGAGCUCAAGACAGCGUGGCAACGUGGCUGUGGCUAGACUGCC [C13G A26C], the self-cleavage rises from 0.14 to 0.27.

Compared with GGCAGAGCUCAACACAGCGUGGCAUAGUGGCUGUGGCUAAACUGCC [A25U G40A], GGCAGAGCUCAACAAAGCGUGGCAAAGUGGCUUUGGCUAGACUGCC [C15A G33U] is higher in self-cleavage: 0.18 for the first, 1.81 for the second.

First: GGCAGAGCUUAACACAGCGUGGCAAAGUGGCUGUGGCUAGACUGGC [C10U C45G]
Second: GGCAGAGCUCAACACAGCGUGGCAAGGUGGCUCUGGCUAGACUGCC [A26G G33C]
The self-cleavage of the first is higher: 0.15 for the first, 0.08 for the second.

Compared with GGCAGAGUUCAACACAGCGUGGCAAAGUGGCUGUGGCUAGUCUGCC [C8U A41U], GGCAGAGCUCAACACAGCGUGGCAAGGUGGCUGUUGCUAGACUGCC [A26G G35U] is lower in self-cleavage: 0.47 for the first, 0.16 for the second.

Going from GGCAGAGCUCAACACAGCGUGGCAAGGUGGCUGUCGCUAGACUGCC [A26G G35C] to GGCAGGGCUCAACACCGCGUGGCAAAGUGGCUGUGGCUAGACUGCC [A6G A16C], the self-cleavage falls from 0.1 to 0.04.

First: GGCAGAGCUCAACACAGCAUGGCAAAGUCGCUGUGGCUAGACUGCC [G19A G29C]
Second: CGCAGAGCUCAACACAGCGUGGCAAAGUGGCUGUGGCUAGACUGUC [G1C C45U]
The self-cleavage of the first is higher: 1.31 for the first, 0.15 for the second.

Compared with GGCAGAGCUCAACACAGCGUGGAAAAGUGGCUGUGGCAAGACUGCC [C23A U38A], GGCAGAGCCCAUCACAGCGUGGCAAAGUGGCUGUGGCUAGACUGCC [U9C A12U] is lower in self-cleavage: 0.28 for the first, 0.03 for the second.

Compared with GGCAGAGCUUAACACAGCGUGGCAAAGUGGCGGUGGCUAGACUGCC [C10U U32G], GGCAGAGCUCAACACAGCGUGGCAAAGUGGCUGUGACUAGACUCCC [G36A G44C] is higher in self-cleavage: 0.12 for the first, 0.15 for the second.

Going from GGCAGAGCUCAACACAGCGUGGCAAAGUGGUUGUAGCUAGACUGCC [C31U G35A] to GGCAGAGCUCAACACUGCGUGGCAAAGAGGCUGUGGCUAGACUGCC [A16U U28A], the self-cleavage rises from 0.03 to 0.26.

First: GGCAGAGCUCAACACAGCGUGGCAAAGUAGCUGUGGCCAGACUGCC [G29A U38C]
Second: GGCAGAGCUUAACAUAGCGUGGCAAAGUGGCUGUGGCUAGACUGCC [C10U C15U]
The self-cleavage of the first is higher: 0.44 for the first, 0.28 for the second.

Going from GGCAGAGCUCAACGCAGCGUGGCAAAGUUGCUGUGGCUAGACUGCC [A14G G29U] to GGCAGAGCUCAACACAUCGUGGCAAAGUGGUUGUGGCUAGACUGCC [G17U C31U], the self-cleavage falls from 0.29 to 0.11.
